B1: Homeodomain-interacting protein kinase 2 (Mus musculus), Q9QZR5 (parent)
chain: MAPVYEGMASHVQVFSPHTLQSSAFCSVKKLKVEPSSNWDMTGYGSHSKVYSQSKNIPPSQPASTTVSTSLPIPNPSLPYEQTIIFPGSTGHIVVTSASSTSVTGQVLGGPHNLMRRSTVSLLDTYQKCGLKRKSEEIENTSSVQIIEEHPPMIQNNASGATVATATTSTATSKNSGSNSEGDYQLVQHEVLCSMTNTYEVLEFLGRGTFGQVVKCWKRGTNEIVAIKILKNHPSYARQGQIEVSILARLSTESADDYNFVRAYECFQHKNHTCLVFEMLEQNLYDFLKQNKFSPLPLKYIRPVLQQVATALMKLKSLGLIHADLKPENIMLVDPSRQPYRVKVIDFGSASHVSKAVCSTYLQSRYYRAPEIILGLPFCEAIDMWSLGCVIAELFLGWPLYPGASEYDQIRYISQTQGLPAEYLLSAGTKTTRFFNRDTDSPYPLWRLKTPDDHEAETGIKSKEARKYIFNCLDDMAQVNMTTDLEGSDMLVEKADRREFIDLLKKMLTIDADKRVTPIETLNHPFVTMTHLLDFPHSAHVKSCFQNMEICKRRVNMYDTVNQSKTPFITHVAPSTSTNLTMTFNNQLTTVHNQAPTTSSATLSLANPEVSILNYQSALYQPSAASMAAVAPRSMPLQTGTAQICARPDPFQQALIVCPPGFQGLQASPSKHAGYSVRMENAVPIVTQAPGAQPLQIQPGLLAQQAWPGGAQQILLPPAWQQLTGVATHTSVQHAAVIPETMAGTQQLADWRNTHAHGSHYNPIMQQPALLTGHVTLPAAQPLNVGVAHVMRQQPTSTTSSRKSKQHQSSVRNVSTCEVTSSQAISSPQRSKRVKENTPPRCAMVHSSPACSTSVTCGWGDVASSTTRERQRQTIVIPDTPSPTVSVITISSDTDEEEEQKHAPTSTVSKQRKNVISCVTVHDSPYSDSSSNTSPYSVQQRTGHNGTNTLDTKGGLENHCTGNPRTIIVPPLKTQASEVLVECDSLGPAISASHHSSSFKSKSSSTVTSTSGHSSGSSSGAIAYRQQRPGPHFQQQQPLNLSQAQQHMAADRTGSHRRQQAYITPTMAQAPYTFPHNSPSHGTVHPHLAAAAHLPTQPHLYTYTAPTALGSTGTVAHLVASQGSARHTVQHTAYPASIVHQVPVSMGPRVLPSPTIHPSQYPAQFAHQTYISASPASTVYTGYPLSPAKVNQYPYI
partner: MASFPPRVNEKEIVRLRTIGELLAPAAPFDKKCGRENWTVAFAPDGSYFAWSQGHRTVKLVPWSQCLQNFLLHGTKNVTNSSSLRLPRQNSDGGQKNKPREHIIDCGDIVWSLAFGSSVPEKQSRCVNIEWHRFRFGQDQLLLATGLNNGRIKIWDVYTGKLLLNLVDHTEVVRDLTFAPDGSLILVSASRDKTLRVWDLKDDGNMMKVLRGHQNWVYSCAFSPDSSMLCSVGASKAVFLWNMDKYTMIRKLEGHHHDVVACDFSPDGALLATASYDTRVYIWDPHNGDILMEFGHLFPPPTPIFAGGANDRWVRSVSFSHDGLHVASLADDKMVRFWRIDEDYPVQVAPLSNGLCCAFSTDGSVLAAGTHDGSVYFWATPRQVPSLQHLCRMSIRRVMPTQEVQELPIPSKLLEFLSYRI

Variants of: B1
Details: with wsb1_human WSB1, Q9Y6I7

effect of a mutation on the interaction | Variant
increasing interaction | K228R
